Measurements reported in patent US20240199745A1, “ANTI-EGFR ANTIBODY DRUG CONJUGATES” (priority 2016, published 2024).

Tests used:
[1] = molecular target: human EGFR (huEGFR) over-expressed on mcl-1-/- mouse embryonic fibroblasts (human, UniProt P00533 25-1210); assay: cell-based or functional assay
[2] = molecular target: EGFR on EGFR positive non-small cell lung cancer cells NCI-H1650 (UniProt P00533 25-1210); assay: cell-based or functional assay

Binder | huEGFR+ mcl-1-/- MEF EC50 [1] [nM] | H1650 CTG-3D EC50 [2] [µg/mL] | H1650 GFP Flourescence EC50 [2] [µg/mL]
AbB-CZ (antibody, human IgG1, kappa, V domains shown, synthon CZ on reduced interchain cysteines; average DAR 3.5 per ADC) VH: EVQLQESGPGLVKPSQTLSLTCTVSGYSISNDFAWNWIRQPPGKGLEWMGYISYKGNTRYQPSLKSRITISRDTSKNQFFLKLNSVTAADTATYYCVTASRGFPWWGQGTLVTVSS VL: DIQMTQSPSSMSVSVGDRVTITCHSSQDINSNIGWLQQKPGKSFKGLIYHGTNLDDGVPSRFSGSGSGTDYTLTISSLQPEDFATYYCVQYAQFPWTFGGGTKLEIKR | 5.9 | 1.27 | 0.88
AbA-TX (antibody, human IgG1, kappa, V domains shown, synthon TX on reduced interchain cysteines; average DAR 2.8 per ADC) VH: EVQLQESGPGLVKPSQTLSLTCTVSGYSISRDFAWNWIRQPPGKGLEWMGYISYNGNTRYQPSLKSRITISRDTSKNQFFLKLNSVTAADTATYYCVTASRGFPYWGQGTLVTVSS VL: DIQMTQSPSSMSVSVGDRVTITCHSSQDINSNIGWLQQKPGKSFKGLIYHGTNLDDGVPSRFSGSGSGTDYTLTISSLQPEDFATYYCVQYAQFPWTFGGGTKLEIKR | 16 | > 40 | 13.9
AbG-AAA (antibody, human IgG1, kappa, V domains shown, synthon AAA on reduced interchain cysteines; average DAR 1.9 per ADC) VH: EVQLQESGPGLVKPSQTLSLTCTVSGYSISNDFAWNWIRQLPGKGLEWMGYISYKGNTRYQPSLKSRITISRDTSKNQFFLKLNSVTAADTATYYCVTASRGLPYWGQGTLVTVSS VL: DIQMTQSPSSMSVSVGDRVTITCHSSQDITYNIGWLQQKPGKSFKGLIYHGANLDDGVPSRFSGSGSGTDYTLTISSLQPEDFATYYCVQYDEFPWTFGGGTKLEIKR | 220 | 0.12 | 0.17
AbG-CZ (antibody, human IgG1, kappa, V domains shown, synthon CZ on reduced interchain cysteines; average DAR 3.4 per ADC) VH: EVQLQESGPGLVKPSQTLSLTCTVSGYSISNDFAWNWIRQLPGKGLEWMGYISYKGNTRYQPSLKSRITISRDTSKNQFFLKLNSVTAADTATYYCVTASRGLPYWGQGTLVTVSS VL: DIQMTQSPSSMSVSVGDRVTITCHSSQDITYNIGWLQQKPGKSFKGLIYHGANLDDGVPSRFSGSGSGTDYTLTISSLQPEDFATYYCVQYDEFPWTFGGGTKLEIKR | 3.4 | 0.07 | 0.25
AbB-TV (antibody, human IgG1, kappa, V domains shown, synthon TV on reduced interchain cysteines; average DAR 2.3 per ADC) VH: EVQLQESGPGLVKPSQTLSLTCTVSGYSISNDFAWNWIRQPPGKGLEWMGYISYKGNTRYQPSLKSRITISRDTSKNQFFLKLNSVTAADTATYYCVTASRGFPWWGQGTLVTVSS VL: DIQMTQSPSSMSVSVGDRVTITCHSSQDINSNIGWLQQKPGKSFKGLIYHGTNLDDGVPSRFSGSGSGTDYTLTISSLQPEDFATYYCVQYAQFPWTFGGGTKLEIKR | 2.4 | 0.86 | 0.74
AbG-TX (antibody, human IgG1, kappa, V domains shown, synthon TX on reduced interchain cysteines; average DAR 3.3 per ADC) VH: EVQLQESGPGLVKPSQTLSLTCTVSGYSISNDFAWNWIRQLPGKGLEWMGYISYKGNTRYQPSLKSRITISRDTSKNQFFLKLNSVTAADTATYYCVTASRGLPYWGQGTLVTVSS VL: DIQMTQSPSSMSVSVGDRVTITCHSSQDITYNIGWLQQKPGKSFKGLIYHGANLDDGVPSRFSGSGSGTDYTLTISSLQPEDFATYYCVQYDEFPWTFGGGTKLEIKR | 5.3 | 0.15 | 0.51
AbK-YY (antibody, human IgG1, kappa, V domains shown, synthon YY on reduced interchain cysteines; average DAR 1.7 per ADC) VH: EVQLQESGPGLVKPSQTLSLTCTVSGYSISRDFAWNWIRQPPGKGLEWMGYISYNGNTRYQPSLKSRITISRDTSKNQFFLKLNSVTAADTATYYCVTASRGFPWWGQGTLVTVSS VL: DIQMTQSPSSMSVSVGDRVTITCHSSQDITYNVGWLQQKPGKSFKGLIYHGSNLDHGVPSRFSGSGSGTDYTLTISSLQPEDFATYYCVQYDDFPWTFGGGTKLEIKR | 47 | 0.49 | 1.09
AbG-AAD (antibody, human IgG1, kappa, V domains shown, synthon AAD on reduced interchain cysteines; average DAR 3.4 per ADC) VH: EVQLQESGPGLVKPSQTLSLTCTVSGYSISNDFAWNWIRQLPGKGLEWMGYISYKGNTRYQPSLKSRITISRDTSKNQFFLKLNSVTAADTATYYCVTASRGLPYWGQGTLVTVSS VL: DIQMTQSPSSMSVSVGDRVTITCHSSQDITYNIGWLQQKPGKSFKGLIYHGANLDDGVPSRFSGSGSGTDYTLTISSLQPEDFATYYCVQYDEFPWTFGGGTKLEIKR | 108 | 0.02 | 0.03
AbK-TV (antibody, human IgG1, kappa, V domains shown, synthon TV on reduced interchain cysteines; average DAR 2.4 per ADC) VH: EVQLQESGPGLVKPSQTLSLTCTVSGYSISRDFAWNWIRQPPGKGLEWMGYISYNGNTRYQPSLKSRITISRDTSKNQFFLKLNSVTAADTATYYCVTASRGFPWWGQGTLVTVSS VL: DIQMTQSPSSMSVSVGDRVTITCHSSQDITYNVGWLQQKPGKSFKGLIYHGSNLDHGVPSRFSGSGSGTDYTLTISSLQPEDFATYYCVQYDDFPWTFGGGTKLEIKR | 0.15 | 0.05 | 0.16
AbB-AAD (antibody, human IgG1, kappa, V domains shown, synthon AAD on reduced interchain cysteines; average DAR 2.7 per ADC) VH: EVQLQESGPGLVKPSQTLSLTCTVSGYSISNDFAWNWIRQPPGKGLEWMGYISYKGNTRYQPSLKSRITISRDTSKNQFFLKLNSVTAADTATYYCVTASRGFPWWGQGTLVTVSS VL: DIQMTQSPSSMSVSVGDRVTITCHSSQDINSNIGWLQQKPGKSFKGLIYHGTNLDDGVPSRFSGSGSGTDYTLTISSLQPEDFATYYCVQYAQFPWTFGGGTKLEIKR | 4.6 | 0.16 | 0.59
AbB-YY (antibody, human IgG1, kappa, V domains shown, synthon YY on reduced interchain cysteines; average DAR 2.2 per ADC) VH: EVQLQESGPGLVKPSQTLSLTCTVSGYSISNDFAWNWIRQPPGKGLEWMGYISYKGNTRYQPSLKSRITISRDTSKNQFFLKLNSVTAADTATYYCVTASRGFPWWGQGTLVTVSS VL: DIQMTQSPSSMSVSVGDRVTITCHSSQDINSNIGWLQQKPGKSFKGLIYHGTNLDDGVPSRFSGSGSGTDYTLTISSLQPEDFATYYCVQYAQFPWTFGGGTKLEIKR | 51 | 8.6 | 7.73
AbK-AAA (antibody, human IgG1, kappa, V domains shown, synthon AAA on reduced interchain cysteines; average DAR 1.6 per ADC) VH: EVQLQESGPGLVKPSQTLSLTCTVSGYSISRDFAWNWIRQPPGKGLEWMGYISYNGNTRYQPSLKSRITISRDTSKNQFFLKLNSVTAADTATYYCVTASRGFPWWGQGTLVTVSS VL: DIQMTQSPSSMSVSVGDRVTITCHSSQDITYNVGWLQQKPGKSFKGLIYHGSNLDHGVPSRFSGSGSGTDYTLTISSLQPEDFATYYCVQYDDFPWTFGGGTKLEIKR | 3.4 | 0.11 | 0.16
AbB-TX (antibody, human IgG1, kappa, V domains shown, synthon TX on reduced interchain cysteines; average DAR 2.2 per ADC) VH: EVQLQESGPGLVKPSQTLSLTCTVSGYSISNDFAWNWIRQPPGKGLEWMGYISYKGNTRYQPSLKSRITISRDTSKNQFFLKLNSVTAADTATYYCVTASRGFPWWGQGTLVTVSS VL: DIQMTQSPSSMSVSVGDRVTITCHSSQDINSNIGWLQQKPGKSFKGLIYHGTNLDDGVPSRFSGSGSGTDYTLTISSLQPEDFATYYCVQYAQFPWTFGGGTKLEIKR | 11 | 2.39 | 3.72
AbG-YY (antibody, human IgG1, kappa, V domains shown, synthon YY on reduced interchain cysteines; average DAR 2.2 per ADC) VH: EVQLQESGPGLVKPSQTLSLTCTVSGYSISNDFAWNWIRQLPGKGLEWMGYISYKGNTRYQPSLKSRITISRDTSKNQFFLKLNSVTAADTATYYCVTASRGLPYWGQGTLVTVSS VL: DIQMTQSPSSMSVSVGDRVTITCHSSQDITYNIGWLQQKPGKSFKGLIYHGANLDDGVPSRFSGSGSGTDYTLTISSLQPEDFATYYCVQYDEFPWTFGGGTKLEIKR | > 500 | 0.4 | 1.1
AbK-CZ (antibody, human IgG1, kappa, V domains shown, synthon CZ on reduced interchain cysteines; average DAR 3.4 per ADC) VH: EVQLQESGPGLVKPSQTLSLTCTVSGYSISRDFAWNWIRQPPGKGLEWMGYISYNGNTRYQPSLKSRITISRDTSKNQFFLKLNSVTAADTATYYCVTASRGFPWWGQGTLVTVSS VL: DIQMTQSPSSMSVSVGDRVTITCHSSQDITYNVGWLQQKPGKSFKGLIYHGSNLDHGVPSRFSGSGSGTDYTLTISSLQPEDFATYYCVQYDDFPWTFGGGTKLEIKR | 0.1 | 0.08 | 0.21
AbG-TV (antibody, human IgG1, kappa, V domains shown, synthon TV on reduced interchain cysteines; average DAR 3.7 per ADC) VH: EVQLQESGPGLVKPSQTLSLTCTVSGYSISNDFAWNWIRQLPGKGLEWMGYISYKGNTRYQPSLKSRITISRDTSKNQFFLKLNSVTAADTATYYCVTASRGLPYWGQGTLVTVSS VL: DIQMTQSPSSMSVSVGDRVTITCHSSQDITYNIGWLQQKPGKSFKGLIYHGANLDDGVPSRFSGSGSGTDYTLTISSLQPEDFATYYCVQYDEFPWTFGGGTKLEIKR | 2.6 | 0.03 | 0.04
AbK-TX (antibody, human IgG1, kappa, V domains shown, synthon TX on reduced interchain cysteines; average DAR 2.2 per ADC) VH: EVQLQESGPGLVKPSQTLSLTCTVSGYSISRDFAWNWIRQPPGKGLEWMGYISYNGNTRYQPSLKSRITISRDTSKNQFFLKLNSVTAADTATYYCVTASRGFPWWGQGTLVTVSS VL: DIQMTQSPSSMSVSVGDRVTITCHSSQDITYNVGWLQQKPGKSFKGLIYHGSNLDHGVPSRFSGSGSGTDYTLTISSLQPEDFATYYCVQYDDFPWTFGGGTKLEIKR | 0.79 | 1.07 | 1.47
